In patent US20150025016A1 (COMMISSARIAT A L ENERGIE ATOMIQUE ET AUX ENERGIES …, published 2015):

B1: peptide i1 (fragment of histone H3, α3 helix) (peptide)
peptide: GAMGTIMPKDIQLARRIRG
notes: The N-terminal GAMG comes from the cloning vector

molecular target: T1, Asf1 (1-156), conserved N-terminal domain of human Asf1 (human, UniProt Q9Y294 1-156); assay: ITC (microcalorimetry)
T1 construct: range 1-156; The ITC legend says Asf1 1-156; Recombinant, cloned in peTM30; also called Asf1a 1-156
Procedure: (§1) All calorimetry experiments were carried out in 50 mM Tris buffer pH 7.4 at 5° C., unless otherwise indicated. Peptides were introduced in the syringe at a concentration of […], and Asf1 was added to the cuvette at a concentration of 30 μM or 10 μM. Calorimety tests were also conducted at 25° C. or in 50 mM Tris buffer 150 mM NaCl pH 7.4 to obtain more detailed information on the characteristics of the interactions studied.

T1 sequence (Q9Y294 1-156 limits assumed): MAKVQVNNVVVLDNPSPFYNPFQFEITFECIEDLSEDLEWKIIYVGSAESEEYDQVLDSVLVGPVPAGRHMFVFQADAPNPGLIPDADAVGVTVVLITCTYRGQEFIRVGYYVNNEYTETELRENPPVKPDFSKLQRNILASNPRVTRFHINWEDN

| Binder | Kd [nM] |
| --- | --- |
| RRPRRPRRPRRPRRPGAMGTITPKEAQLARRIRGAGGVTLNGFG [inhibitor peptide Asf1/H3-H4, peptide RRP5-i42V] | 590 |
| GAMGTITPKEAQLARRIRG [Stabilized H3 fragment of SEQ ID No 71] | 1400 |
| LTAAEHAKRSTLTPKEAELARRIRGAGGVTLNGFG [inhibitor peptide Asf1/H3-H4 of SEQ ID No 53] | 60 |
| RRPRRPRRPRRPRRPASTERKWAELARRIRGAGGVTLNGFGGCA [inhibitor peptide Asf1/H3-H4, peptide RRP5-i5] | 670 |
| GAMGTLTPKEAELARRIRGAGGVTLNGANFVSTG [inhibitor peptide Asf1/H3-H4 of SEQ ID No 63] | 1680 |
| GRKKRRQRRRGAMGTITPKEAQLARRIRGAGGVTLNGFG [inhibitor peptide Asf1/H3-H4, peptide TAT-i42V] | 620 |
| GAMGTLTPKEAELARRIRGAGASGRTLNGFG [inhibitor peptide Asf1/H3-H4 of SEQ ID No 74] | 1890 |
| GAMGTLTPKEAELARRIRG [Stabilized H3 fragment of SEQ ID No 72] | 2230 |
| B1 | 8700 |
| GAMGRVPPAVRKLGNSTERKWAELARRIRGAGGVTLNGFG [inhibitor peptide Asf1/H3-H4 of SEQ ID No 64] | 80 |
| GAMGTLTPKEAELARRIRGAGGVTLNGFGASTG [inhibitor peptide Asf1/H3-H4 of SEQ ID No 62] | 320 |
| GAMGTITPKEAQLARRIEGAGASVTLNGFG [inhibitor peptide Asf1/H3-H4 of SEQ ID No 44] | 660 |
| GAMGTITPKEEQLRRRIEGAGASVTLNGFG [inhibitor peptide Asf1/H3-H4 of SEQ ID No 46] | 420 |
| GAMGTLTPKEAELARRIRGAGASRTLNGFG [inhibitor peptide Asf1/H3-H4 of SEQ ID No 43] | 350 |
| GAMGTLTPKEAELARRIEGAGASVTLNGFG [inhibitor peptide Asf1/H3-H4 of SEQ ID No 45] | 2000 |
| GAMGTITPKEAQLARRIRGAGASRTLNGFG [inhibitor peptide Asf1/H3-H4 of SEQ ID No 41] | 800 |
| GAMGTLTPKEAELARRIRGAGGRTLNGFG [inhibitor peptide Asf1/H3-H4, peptide i4] | 180 |
| GAMGTLTPKEAELARRIRGAGGVTLNGFG [inhibitor peptide Asf1/H3-H4, peptide i4V] | 60 |
| GAMGTITPKEAQLARRIRGAGGVTLNGFG [inhibitor peptide Asf1/H3-H4, peptide i42V] | 350 |
| GAMGTRTPKEARLARRIRGAGGRTLNGFG [inhibitor peptide Asf1/H3-H4 of SEQ ID No 57] | 260 |

| Binder | Kd [nM] |
| --- | --- |
| GAMGTRTPKERRLARRIRGAGGRTLNGFG [inhibitor peptide Asf1/H3-H4 of SEQ ID No 56] | 30 |
| GAMGTLTPKEAELARRIRGAGGVTYDGFG [inhibitor peptide Asf1/H3-H4 of SEQ ID No 61] | 100 |
| GAMGTITPKEAQLARRIRGAGGRTLNGFG [inhibitor peptide Asf1/H3-H4, peptide i4_2] | 220 |
| ASTERKWAELARRIAGAGGVTLNGFG [Peptide i5_Aloop] | 27 |
| ASTERKWAELARRIRGAGGATLNGFG [Peptide i5_loopA] | 63 |
| ASTRRKWAELARRIRGAGGVTLNGFG [peptide of SEQ ID No 33] | 1330 |
| ASTEEKWARLARRIRGAGGVTLNGFG [Peptide i5_s3] | 20 |
| ASTERKWAELARRIRGAGGRTLNGFG [Peptide i5_loopR] | 29 |
| ASTERKWAELARRIRGAGGVTLDGFG [Peptide i5_D] | 9 |
| GAMGTIMPKDIQLARRIRGAGASRTLYGFG [inhibitor peptide Asf1/H3-H4 of SEQ ID No 39] | 350 |
| RRPRRPRRPRRPRRPGAMGTIMPKDIQLARRIRGGCA [inhibitor peptide Asf1/H3-H4, peptide RRP5-i1] | 460 |
| LTAAEHAKRSTLTPKEAQLARRIEGAGASVTLNGFG [inhibitor peptide Asf1/H3-H4 of SEQ ID No 54] | 120 |
| LTAAEHAKRSTLTPKEAELARRIEGAGASVTLNGFG [inhibitor peptide Asf1/H3-H4 of SEQ ID No 55] | 880 |
| GAMGTLTPKEAELARRIRGAGRTLNGFG [inhibitor peptide Asf1/H3-H4 of SEQ ID No 49] | 950 |
| GAMGTIMPKDIQLARRIRGAGGRTLYGFG [inhibitor peptide Asf1/H3-H4, peptide i4_1] | 560 |
| GAMGTLTPKEAELARRIRGARTLNGFG [inhibitor peptide Asf1/H3-H4 of SEQ ID No 73] | 3890 |
| GAMGLTAAEHAKRSTLTPKEAQLARRIRGAGGVTLNGFG [inhibitor peptide Asf1/H3-H4 of SEQ ID No 52] | 30 |
| RRPRRPRRPRRPRRPGAMGTITPKEAQLARRIRGAGGVTLNGFGCA [inhibitor peptide Asf1/H3-H4, peptide RRP5-i42V-CA] | 420 |
| GAMGRVPPAVRKLGNASTERKWAELARRIRGAGGVTLNGFG [inhibitor peptide Asf1/H3-H4 of SEQ ID No 65] | 60 |

molecular target: T1, Asf1 (1-156), conserved N-terminal …; assay: ITC (microcalorimetry); second printing of SEQ ID No 42 in a later block of the 6th table
Procedure: as §1

| Binder | Kd [nM] |
| --- | --- |
| GAMGTLTPKEAELARRIRGAGGRTLNGFG [inhibitor peptide Asf1/H3-H4, peptide i4] | 180 |

molecular target: T2, human protein GST-Asf1 1-156 (human, UniProt Q9Y294 1-156); assay: competition on GST column: GST-Asf1 1-156 beads loaded with histones H3-H4, elution with 0, 5, 10, 50 and 100 µM peptide; released histone H3 shown by Western blot (anti-H3, anti-GST)
T2 construct: range 1-156; also called GST-Asf1a; GST beads linked to Asf1; not shown: GST tag
T2 sequence (Q9Y294 1-156 limits assumed): as the sequence (Q9Y294 1-156 limits assumed) above
Procedure: The human protein GST-Asf1 1-156 was produced and then incubated with GST beads (glutathione S transferase, Sigma). […] After washing with 50 mM Tris buffer pH8, 150 mM NaCl, 1 mM EDTA, 1 mM DTT, 0.5% NP40, the beads were incubated with different concentrations of peptide (0 to 1 mM) dissolved in the same buffer.

| Binder | binding result |
| --- | --- |
| ASTERKWAEAARRARGAGGVTLNGAG [Peptide i5mut (control peptide)] | no binding (tested: 100 µM) |
